In article PMC11315690:

Target: N-terminal structural domain of human Nogo-B protein (hNogo-B-N), residues 1-185, with human Fc fragment (human) (UniProt Q9NQC3)
Test: SPR

UniProt Q9NQC3, sequence (Q9NQC3 1-185): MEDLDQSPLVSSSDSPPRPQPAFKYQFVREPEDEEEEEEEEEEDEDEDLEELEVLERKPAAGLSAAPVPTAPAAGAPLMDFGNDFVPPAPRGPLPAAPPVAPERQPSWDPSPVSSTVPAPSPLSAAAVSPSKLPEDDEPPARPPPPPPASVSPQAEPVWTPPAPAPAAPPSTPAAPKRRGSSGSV

Kd: 1370 nM
Substance: human proGCG protein (hproGCG) with C-terminal Strep-tag II (natural protein)
